The source of these data is patent US8071348B2, “Protein tyrosine phosphatase substrate-trapping double mutant and uses thereof” (Albert Einstein College of Medicine of Yeshiva University, priority 2002, dated 2011).

Some results are limits rather than exact numbers.

The target of assay [1] is epidermal growth factor receptor (EGFR) of COS1 cells, tyrosine-phosphorylated (monkey (COS1 cells)). The experiment in a line: cell-based or functional assay.
The target is the same in assay [2]. Nature of the assay: co-immunoprecipitation from EGF-treated COS1 lysates with anti-HA agarose, anti-pTyr blot.

In turn, “HA-tagged full-length human PTP1B D181A/Q262A (from UniProt P18031 1-435) (enzyme)” had a protection of the phosphorylated EGF receptors in COS1 cells, against the D181A mutant (anti-pTyr immunoblot of lysates) in assay [1] of 3 fold. For the same substance, in assay [2], the fold greater quantity of tyrosine-phosphorylated EGF receptor co-precipitated than with the D181A mutant was over 3 fold.
